Test results from paper PMC4372375.

Biological target: pancreatic polypeptide (UniProt P01298)

B1: pancreatic polypeptide (peptide)
chain: APLEPVYPGDNATPEQMAQYAADLRRYINMLTRPRY
B1 gave an LDH release assay, % cell death of SH-SY5Y cells after 30 h with 10 μM PP oligomers formed with heparin (PP incubated without heparin: no significant LDH release) of 35%.
